Assay [1] addresses T1, human SIRPβ1-His monomer protein (human, UniProt O00241 30-371, limits assumed). Put plainly: BLI. As for the experimental part: (§1) Select antibodies from Example 1 of the disclosure were tested for their affinities to human SIRPγ, cynomolgus monkey SIRPγ, human SIRPαV1, human SIRPαV2, and human SIRPβ1 using a biolayer interferometry (BLI) Octet system (Pall ForteBio). Each antibody was immobilized on a biosensor tip by an anti-human IgG capture (AHC). […] The biosensors were then exposed to wash buffer to measure off-rate kinetics. The resulting kinetic data were analyzed and fitted using a 1:1 binding model.

The target in assay [2] is T2, human SIRPγ on primary human T-cells (human, UniProt Q9P1W8 29-387).
T2 construct: endogenous SIRPγ of donor T-cells; also called SIRPγ on T-cells
Description: flow cytometry, dye-conjugated antibody, human whole blood (3 donors). As for the experimental part: Selected antibodies and an isotype control were tested for binding to human T-cells, B-cells, NK cells, monocytes, and granulocytes. […] Up to 50 μg/mL fluorescent dye-conjugated antibodies or isotype controls were incubated with whole blood from three normal donors. T-cells were identified as the CD14−, CD20−, SSClow, and CD3+ population or further identified to be CD4+ or CD8+ populations. B-cells were identified as the CD14−, SSClow, and CD20+ population. NK cells were identified as CD14−, CD20−, CD3−, and CD56+. Monocytes were identified as the SSClow and CD14+ population. Granulocytes were identified as the CD14−, CD20−, CD3−, SSChigh population. Graphs depict the median fluorescence intensity (MFI) of each population.

Assay [3] deals with T3, human SIRPγ-His monomer protein (human, UniProt Q9P1W8 29-360).
T3 construct: also called hSIRPγ
Description: BLI Octet, antibody on AHC, SIRP-His monomer, 1:1 model. The method, then: as §1

Assay [4] addresses T4, cynomolgus monkey SIRPγ-His monomer protein (cynomolgus monkey, UniProt Q9P1W8 29-359 (human entry), limits assumed).
T4 construct: also called Cyno SIRPγ; Cyno SIRPγ-His
T4 chain: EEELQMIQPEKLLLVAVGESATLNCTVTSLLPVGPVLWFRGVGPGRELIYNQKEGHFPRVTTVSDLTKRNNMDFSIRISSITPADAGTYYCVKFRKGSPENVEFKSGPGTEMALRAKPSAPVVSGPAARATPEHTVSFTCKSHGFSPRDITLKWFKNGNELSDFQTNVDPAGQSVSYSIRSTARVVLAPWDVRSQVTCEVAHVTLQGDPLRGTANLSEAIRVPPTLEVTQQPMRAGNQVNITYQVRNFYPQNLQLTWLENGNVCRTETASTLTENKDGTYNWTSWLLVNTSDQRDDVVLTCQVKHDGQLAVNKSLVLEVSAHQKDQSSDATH
The assay is described as above. As for the experimental part:
as §1

In assay [5] the target is T5, extracellular binding domain of human SIRPγ (plate-coated) (human, UniProt Q9P1W8 29-360).
T5 construct: also called hSIRPγ
Description: ELISA, coated SIRP ECD (2 µg/mL), anti-human IgG, luminescence. An outline of the steps:
(§2)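 Plate-coated SIRP extracellular domain (2 μg/mL), blocked, then exposed to purified antibodies in titration, after transient expression in Expi293F cells for 5 days and Protein A purification. Bound antibody is detected with anti-human IgG and a chemiluminescent substrate, and reported as relative luminescence units.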

Assay [6] has as its target T6, human SIRPα V2-His monomer protein (human, UniProt P78324 31-370, limits assumed).
T6 construct: the V2 allele differs from the canonical UniProt P78324 entry
Description: BLI. As for the experimental part:
as §1

Assay [7] addresses T7, Human SIRPαV2 (plate-coated extracellular domain) (Homo sapiens, UniProt P78324).
T7 construct: extracellular domain
Put plainly: ELISA, coated SIRP ECD (2 µg/mL), anti-human IgG, luminescence. An outline of the steps: as §2

Assay [8] deals with T8, cynomolgus monkey SIRPα on CHO cells (cynomolgus monkey, UniProt A0A2K5VYQ9 31-507).
T8 construct: whole, on cells; also called Cyno SIRPα CHO
T8 sequence: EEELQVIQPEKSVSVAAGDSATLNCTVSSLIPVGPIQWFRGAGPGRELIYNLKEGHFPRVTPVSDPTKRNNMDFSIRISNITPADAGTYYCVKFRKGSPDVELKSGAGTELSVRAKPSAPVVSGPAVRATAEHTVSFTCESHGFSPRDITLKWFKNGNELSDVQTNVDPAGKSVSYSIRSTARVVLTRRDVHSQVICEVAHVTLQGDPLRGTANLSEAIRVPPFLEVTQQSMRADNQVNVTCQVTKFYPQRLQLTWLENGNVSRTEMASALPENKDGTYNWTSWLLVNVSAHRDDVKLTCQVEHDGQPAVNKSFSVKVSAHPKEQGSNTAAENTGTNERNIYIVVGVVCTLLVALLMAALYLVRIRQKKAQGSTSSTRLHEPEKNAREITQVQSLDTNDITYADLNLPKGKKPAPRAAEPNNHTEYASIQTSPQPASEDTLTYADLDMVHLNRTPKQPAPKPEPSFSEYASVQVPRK
Description: flow cytometry.

The target in assay [9] is T6, human SIRPα V2-His monomer protein. Put plainly: BLI Octet, V5-scFv PPE captured, SIRP-His 500 nM.
Assay [10] addresses T1, human SIRPβ1-His monomer protein. Put plainly: BLI Octet, V5-scFv PPE captured, SIRP-His 500 nM.
Assay [11] has as its target T3, human SIRPγ-His monomer protein. Put plainly: BLI Octet, V5-scFv PPE captured, SIRP-His 500 nM.
In assay [12] the target is T4, cynomolgus monkey SIRPγ-His monomer …. Put plainly: BLI Octet, captured scFv PPE, cyno SIRP. An outline of the steps:
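Bio-layer interferometry used biotinylated anti-V5 on streptavidin sensors to capture V5-tagged scFv from crude periplasmic extract. Monomeric His-tagged SIRP protein at 500 nM was associated, then dissociated in wash buffer. Off-rate (kdis) was analyzed from the kinetic traces.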

For assay [13], the target named is T9, cynomolgus monkey SIRPγ on CHO cells (cynomolgus monkey, UniProt Q9P1W8 29-386 (human entry)).
T9 construct: also called Cyno SIRPγ CHO
T9 chain: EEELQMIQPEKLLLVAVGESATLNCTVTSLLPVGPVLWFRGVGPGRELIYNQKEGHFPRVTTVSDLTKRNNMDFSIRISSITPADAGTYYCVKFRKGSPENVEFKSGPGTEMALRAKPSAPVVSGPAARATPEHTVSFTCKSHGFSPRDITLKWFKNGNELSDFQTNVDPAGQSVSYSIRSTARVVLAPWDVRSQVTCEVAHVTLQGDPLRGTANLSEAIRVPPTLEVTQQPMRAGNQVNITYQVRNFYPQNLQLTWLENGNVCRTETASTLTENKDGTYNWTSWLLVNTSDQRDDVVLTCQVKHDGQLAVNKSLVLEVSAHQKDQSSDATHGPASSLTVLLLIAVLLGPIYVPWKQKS
Description: flow cytometry, myc-scFv PPE. An outline of the steps:
(§3)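 Read-out is median fluorescence intensity for each antibody concentration, measured after a titration series is bound to stably transfected CHO cells and stained with labelled anti-human IgG. The scFv data come from myc-tagged crude PPE, also run on parental CHO-K1, where fold change below 2.0 denotes no binding.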

Assay [14] concerns the target T10, human SIRPγ on stably transfected CHO cells (human, UniProt Q9P1W8 29-387).
T10 construct: also called Human SIRPγ CHO
Put plainly: flow cytometry, myc-scFv PPE. An outline of the steps:
as §3

The target of assay [15] is T11, human SIRPβ1 on CHO cells (co-transfected with DAP12) (human, UniProt O00241 30-398).
T11 construct: whole, on cells; co-transfected with DAP12; also called Human SIRPβ1 CHO
Put plainly: flow cytometry.

Assay [16] concerns the target T8, cynomolgus monkey SIRPα on CHO cells. Description: flow cytometry, myc-scFv PPE. An outline of the steps:
as §3

T1 sequence (O00241 30-371 limits assumed): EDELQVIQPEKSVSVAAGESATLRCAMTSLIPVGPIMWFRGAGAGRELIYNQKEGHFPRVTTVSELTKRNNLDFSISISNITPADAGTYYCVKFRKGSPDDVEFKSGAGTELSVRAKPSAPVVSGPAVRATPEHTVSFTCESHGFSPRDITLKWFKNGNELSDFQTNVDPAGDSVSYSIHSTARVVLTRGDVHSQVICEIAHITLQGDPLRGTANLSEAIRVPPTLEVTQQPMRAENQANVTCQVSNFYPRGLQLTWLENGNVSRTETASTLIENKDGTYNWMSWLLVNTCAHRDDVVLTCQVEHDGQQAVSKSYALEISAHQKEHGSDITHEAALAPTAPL
T3 sequence (Q9P1W8 29-360 limits assumed): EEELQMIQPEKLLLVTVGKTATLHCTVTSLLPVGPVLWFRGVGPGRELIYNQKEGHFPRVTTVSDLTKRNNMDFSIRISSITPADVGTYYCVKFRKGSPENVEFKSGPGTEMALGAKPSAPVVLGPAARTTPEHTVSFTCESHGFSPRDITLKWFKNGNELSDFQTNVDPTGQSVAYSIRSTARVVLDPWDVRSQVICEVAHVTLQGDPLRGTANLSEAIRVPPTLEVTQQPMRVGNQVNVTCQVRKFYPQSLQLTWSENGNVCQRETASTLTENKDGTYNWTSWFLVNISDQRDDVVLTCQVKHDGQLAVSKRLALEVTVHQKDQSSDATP
T6 sequence (P78324 other isoform, or with tags, fused parts or gaps limits assumed): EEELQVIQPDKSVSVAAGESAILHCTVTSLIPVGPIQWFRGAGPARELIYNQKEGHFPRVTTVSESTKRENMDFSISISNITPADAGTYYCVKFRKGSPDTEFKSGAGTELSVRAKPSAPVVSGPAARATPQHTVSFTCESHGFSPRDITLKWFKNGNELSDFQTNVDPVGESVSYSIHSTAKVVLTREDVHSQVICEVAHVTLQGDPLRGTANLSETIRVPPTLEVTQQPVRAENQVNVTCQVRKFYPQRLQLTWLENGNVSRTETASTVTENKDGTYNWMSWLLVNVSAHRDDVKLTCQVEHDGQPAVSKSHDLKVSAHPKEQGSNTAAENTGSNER
T10 sequence (Q9P1W8 29-387 limits assumed): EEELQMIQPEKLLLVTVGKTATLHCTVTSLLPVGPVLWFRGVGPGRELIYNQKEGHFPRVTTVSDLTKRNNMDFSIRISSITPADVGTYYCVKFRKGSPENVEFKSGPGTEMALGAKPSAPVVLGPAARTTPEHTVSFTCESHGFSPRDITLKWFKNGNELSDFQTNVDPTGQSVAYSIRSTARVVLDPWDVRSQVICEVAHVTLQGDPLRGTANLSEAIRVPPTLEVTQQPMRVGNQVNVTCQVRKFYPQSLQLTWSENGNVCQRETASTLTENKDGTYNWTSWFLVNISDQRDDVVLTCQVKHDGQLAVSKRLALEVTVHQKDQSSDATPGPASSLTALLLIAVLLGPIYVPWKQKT
T5 sequence (Q9P1W8 29-360 limits assumed): as the sequence (Q9P1W8 29-360 limits assumed) above
T7 sequence (P78324 other isoform, or with tags, fused parts or gaps limits assumed): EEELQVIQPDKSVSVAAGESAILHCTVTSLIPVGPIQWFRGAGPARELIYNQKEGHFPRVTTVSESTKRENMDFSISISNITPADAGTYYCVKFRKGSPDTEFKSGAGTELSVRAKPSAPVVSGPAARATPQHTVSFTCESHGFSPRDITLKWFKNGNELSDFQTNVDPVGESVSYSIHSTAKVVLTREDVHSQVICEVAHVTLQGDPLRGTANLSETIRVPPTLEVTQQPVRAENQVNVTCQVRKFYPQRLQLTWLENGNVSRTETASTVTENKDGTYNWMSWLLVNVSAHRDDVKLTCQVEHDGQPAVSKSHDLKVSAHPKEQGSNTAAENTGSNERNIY
T2 sequence (Q9P1W8 29-387 limits assumed): as the sequence (Q9P1W8 29-387 limits assumed) above
T11 sequence (O00241 30-398): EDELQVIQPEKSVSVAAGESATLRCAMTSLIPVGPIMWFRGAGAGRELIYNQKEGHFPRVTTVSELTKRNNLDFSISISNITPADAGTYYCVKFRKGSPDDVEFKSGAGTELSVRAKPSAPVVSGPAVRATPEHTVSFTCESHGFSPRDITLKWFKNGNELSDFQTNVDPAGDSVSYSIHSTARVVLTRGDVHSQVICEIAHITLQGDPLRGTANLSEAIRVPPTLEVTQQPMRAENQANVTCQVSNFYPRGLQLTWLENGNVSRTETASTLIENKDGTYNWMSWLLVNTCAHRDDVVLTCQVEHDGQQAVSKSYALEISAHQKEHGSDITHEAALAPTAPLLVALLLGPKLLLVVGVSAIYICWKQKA

B1: Antibody 8 (antibody, V domains shown)
VH: QVQLVQSGAEVKKPGASVKVSCKASGYTFTGYHIHWVRQAPGQGLEWMGWINPNSGGTNYAQKFQGRVTMTRDTSINTAYMELNRLRSDDTAVFYCARERVGYCSRPSCLDDLNIWGQGTMVTVSS
VL: DIQMTQSPSTLSASVGDRVTITCRASQSISSWLAWYQQKPGKAPKLLIYKASSLETGVPSRFSGSGSGTEFTLTISSLQPDDFATYYCQQYDSYYTFGQGTKLEIK
Take B1: in assay [1], the binding result was “no binding (tested: 300 nM)”. For the same molecule, the results for the “EC50 (read off the curve)” value in assay [2] and in assay [5] were around 0.1 µg/mL and around 0.04 µg/mL, respectively. The dissociation constant Kd in assay [3] is 2.07 nM; in [4], 8.01 nM.

B2: Antibody 7 (antibody, V domains shown)
VH: QVQLVESGGGVVQPGRSLRLSCAASGFTFSNYGMHWVRQAPGKGLEWVAFIWYDGSNKNYADSVKGRFTISRDNPTNTLYLQMNSLRAEDTAVYYCAREEQWLDYWGQGTLVTVSS
VL: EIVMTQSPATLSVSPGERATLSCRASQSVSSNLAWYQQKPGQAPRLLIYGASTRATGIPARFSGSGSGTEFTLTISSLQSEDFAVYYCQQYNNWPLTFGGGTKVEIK
As for B2, the figures for the binding result in [6], in assay [1] and in assay [7] were “no binding (tested: 300 nM)”, “no binding (tested: 300 nM)” and “no binding (tested: about 40 µg/mL)”, respectively. Moreover, the Kd in assay [3] worked out at 296 nM; in assay [4], 2200 nM. In [5], the “EC50 (read off the curve)” value is around 0.3 µg/mL.

B3: Antibody 28 (scFv, V domains shown)
VH: QVQLVQSGAEVKKPGASVKVSCKASGYTFTSYNIHWVRQAPGQGLEWMGWISAYNGNTNYAQKLQGRVTMTRDTSTSTVYMELSSLRSEDTAVYYCALDGGQLGVAFDIWGQGTMVTVSS
VL: DIQMTQSPSSLSASVGDRVTITCRASQGISNWLAWYQQKPGKAPKLLIYDASNLDAGVPSRFSGSGSGTDFTLTISSLQPEDFATYYCQQANSLPLTFGGGTKVEIK
notes: scFv in crude PPE, V5/myc-tagged
As for B3, the binding result is recorded as “no binding (tested: fold change <2.0)” in [8] and “binds” in [12]. The values for the kdis in assay [9], in assay [10] and in assay [11] were 0.001 to 0.01 s⁻¹, below 0.001 s⁻¹ and 0.001 to 0.01 s⁻¹, respectively. The “MFI fold change over parental CHO” value was 24 fold in assay [13] and 46.5 fold in assay [14].

B4: Antibody 19 (scFv, V domains shown)
VH: QVQLVQSGAEVKKPGASVKVSCKASGYTFTAYYMHWVRQAPGQGLEWMGIINPSGGSTSYAQKFQGRVTMTRDTSTSTVYMELSSLRSEDTAVYYCARDSGWYAPGYYYGMDVWGQGTTVTVSS
VL: DIQMTQSPSSLSASVGDRVTITCRASESISHWLAWYQQKPGKAPKLLIYGASTLQSGVPSRFSGSGSGTDFTLTISSLQPEDFATYYCQQSYTPPLTFGGGTKVEIK
notes: as for B3
As for B4, the binding result in [15] is given as “no binding (tested: fold change <2.0)”. The molecule also gave a kdis in assay [11] below 0.001 s⁻¹. Also, the results for the “MFI fold change over parental CHO” value in [16], in assay [13] and in [14] were 2.01 fold, 36.6 fold and 43.3 fold, respectively.
